Measurements from patent publication US20160115222A1 (published 2016).

Experiments:
[1] = molecular target: T1, SpA on S. aureus Newman strain cells (Staphylococcus aureus (Newman strain), UniProt A0A0H3K686 37-477); experiment: whole cell ELISA
T1 construct: also called wild type S. aureus Newman

[2] = molecular target: T2, Sbi-E (amino acids 28-266) (Staphylococcus aureus, UniProt Q2FVK5 28-266); experiment: double immunodiffusion in agarose gel
T2 construct: range 28-266

[3] = molecular target: T3, Recombinant SpA (Biovision), recombinant 4-domain SpA (Staphylococcus aureus, UniProt P38507 37-269); experiment: double immunodiffusion in agarose gel
T3 construct: domain: SpA IgBP domains 1-4; also called SpA 1-4; SpA1-4

[4] = molecular target: T4, rProtein A (HiTrap rProtein A FF column) (Staphylococcus aureus, UniProt P38507 37-327); experiment: affinity chromatography
T4 construct: also called SpA

B1: Anti-RSV variant antibody MAB5 (antibody, human IgG1, kappa, V domains shown)
VH: QVTLRESGPALVKPTQTLTLTCTFSGFSLSTAGMSVGWIRQPPGKALEWLADIWWDDKKHYNPSLKDRLTISKDTSKNQVVLKVTNMDPADTATYYCARDMIFNFYFDVWGQGTTVTVSS
VL: DIQMTQSPSTLSASVGDRVTITCSASSRVGYMHWYQQKPGKAPKLLIYDTSKLASGVPSRFSGSGSGTEFTLTISSLQPDDFATYYCFQGSGYPFTFGGGTKLEIKR
notes: also called anti-RSV heavy chain constant region variant; control anti-RSV variant antibody
- binding result [1]: no binding
- binding result [2]: no binding (tested: 1 mg/ml (from paragraph 493, not on the sheet))
- binding result [3]: no binding (tested: 1 mg/ml (from paragraph 493, not on the sheet))
- binding result [4]: no binding
